Data taken from US20160096891A1 (AstraZeneca / MedImmune, published 2016).

T1: human B7-H5 expressed on cells (CHO transfectants) (UniProt Q9UM44 23-414)
T1 chain: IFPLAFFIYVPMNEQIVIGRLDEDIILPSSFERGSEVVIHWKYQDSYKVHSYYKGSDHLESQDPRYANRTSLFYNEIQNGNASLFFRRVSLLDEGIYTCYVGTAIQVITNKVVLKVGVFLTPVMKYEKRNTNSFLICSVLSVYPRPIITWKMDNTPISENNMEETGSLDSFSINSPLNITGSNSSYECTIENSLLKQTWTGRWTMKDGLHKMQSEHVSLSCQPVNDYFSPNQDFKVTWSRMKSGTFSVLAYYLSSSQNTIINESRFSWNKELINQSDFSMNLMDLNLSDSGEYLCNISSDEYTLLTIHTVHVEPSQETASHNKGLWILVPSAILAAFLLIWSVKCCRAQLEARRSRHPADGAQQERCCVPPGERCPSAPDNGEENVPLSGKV

T2: human B7-H5 expressed on cells (CHO transfectants) (human, UniProt Q9UM44 23-414)
T2 construct: also called B7-H7; HHLA2
T2 sequence: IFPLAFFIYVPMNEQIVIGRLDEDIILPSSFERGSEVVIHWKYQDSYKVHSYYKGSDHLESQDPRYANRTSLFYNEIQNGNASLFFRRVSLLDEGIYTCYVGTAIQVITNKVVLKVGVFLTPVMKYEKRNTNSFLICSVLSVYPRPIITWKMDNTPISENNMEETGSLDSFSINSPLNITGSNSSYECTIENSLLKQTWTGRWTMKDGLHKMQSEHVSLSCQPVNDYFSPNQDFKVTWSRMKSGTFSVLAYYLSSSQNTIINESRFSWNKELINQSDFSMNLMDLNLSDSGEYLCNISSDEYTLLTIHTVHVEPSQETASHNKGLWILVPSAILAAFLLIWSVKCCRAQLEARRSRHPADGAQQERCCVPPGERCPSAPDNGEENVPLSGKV


What was measured:
[1] = molecular target: T1, human B7-H5 expressed on cells (CHO …); test: FACS binding to CHO cells
[2] = molecular target: T2, human B7-H5 expressed on cells (CHO …); test: flow cytometry on CHO transfectants expressing human B7-H5
[3] = molecular target: T2, human B7-H5 expressed on cells (CHO …); test: flow cytometry on CHO cells expressing human B7-H5 (figure legend)
Protocol: Human B7-H5 FL CHO transfectants were pre-incubated with control supernatant (Panel A) or recombinant chimeric 2D3 (Panel B) and 18C3 supernatants (Panel C), and subsequently stained with biotinylated CD28HhIg fusion protein.
The human B7-H5-binding antibodies of the present invention (antibodies 2D3 and 18C3) were recombinantly converted to a human IgG4P isotype from their native hamster isotype. CHO transfectants that express human B7-H5 were then incubated in the presence of the recombinant antibodies. […] FIG. 15 compares the affinities of antibodies 2D3 and 18C3 for binding to human B7-H5 as expressed on the surface of CHO cells.

Row | Kd [1] [nM] | binding result [2] | binding result [3] | Binder
1 | ~2.5 | binds | – | anti-human B7-H5 antibody 2D3 (hybridoma clone 2D3) (antibody, V domains shown, constant regions are not; also called Anti-Human B7-H5 Clone 2D3; 2D3 mAb) VH: QVQLQQSGAELVKPGASVKLSCKASGYTFTSHDINWVRQRPELGLEWIGWIFPGDGSTKFNEKFKGKATLTTDKSSSTAYIQLSRLTSEDSAVYFCARNSFYSMDYWGQGTSVTVSS VL: DIVMSQSPSSLAVSAGEKVTMSCKSSQSLLNSRTRKNQLAWYQQKPGQSPKLLIYWAFIRESGVPDRFTGSGSGTDFTLTISSVQAEDLAVYYCKQSYNLRTFGGGTKLEIK
2 | – | – | binds | recombinant anti-human B7-H5 chimeric antibody 2D3, human IgG4P isotype (antibody, V domains shown, also called recombinant chimeric 2D3; human IgG4P derivative of 2D3) VH: QVQLQQSGAELVKPGASVKLSCKASGYTFTSHDINWVRQRPELGLEWIGWIFPGDGSTKFNEKFKGKATLTTDKSSSTAYIQLSRLTSEDSAVYFCARNSFYSMDYWGQGTSVTVSS VL: DIVMSQSPSSLAVSAGEKVTMSCKSSQSLLNSRTRKNQLAWYQQKPGQSPKLLIYWAFIRESGVPDRFTGSGSGTDFTLTISSVQAEDLAVYYCKQSYNLRTFGGGTKLEIK
3 | ~3.8 | binds | – | anti-human B7-H5 antibody 18C3 (hybridoma clone 18C3) (antibody, V domains shown, constant regions are not; also called Anti-Human B7-H5 Clone 18C3) VH: QVQLQQSGAELVKPGASVKLSCKASGYTFTSHDINWVRQRPEQGLEWIGWIFPGDGSTKFNEKFKGKATLTTDKSSSTAYIQLSRLTSEDSAVYFCARNSFYSMDYWGQGTSVTVSS VL: DIVMSQSPSSLAVSAGEKVTMSCKSSQSLLNSRTRKNQLAWYQQKPGQSPKLLIYWASTRESGVPDRFTGSGSGTDFTLTISSVQAEDLAVYYCKQSYNLRTFGGGTKLEIK
4 | – | – | binds | recombinant anti-human B7-H5 chimeric antibody 18C3, human IgG4P isotype (antibody, V domains shown, also called recombinant chimeric 18C3; human IgG4P derivative of 18C3) VH: QVQLQQSGAELVKPGASVKLSCKASGYTFTSHDINWVRQRPEQGLEWIGWIFPGDGSTKFNEKFKGKATLTTDKSSSTAYIQLSRLTSEDSAVYFCARNSFYSMDYWGQGTSVTVSS VL: DIVMSQSPSSLAVSAGEKVTMSCKSSQSLLNSRTRKNQLAWYQQKPGQSPKLLIYWASTRESGVPDRFTGSGSGTDFTLTISSVQAEDLAVYYCKQSYNLRTFGGGTKLEIK
